experiment: yeast display, Sf9 membrane polyspecificity reagent, FACS + sequencing; frameworks hold sequencing errors
Outline: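 Using colony PCR, genes from sorted yeast display clones were amplified, then sequenced on MiSeq at 2 × 250 and filtered by CDR length. The clones had been stained with 10% biotinylated, detergent-solubilized Sf9 membrane reagent for 1 hour at 4 °C and sorted by FACS into low and high (top ~1%) gates on anti-HA and streptavidin fluorescence. Polyreactivity labels come from the gate of origin.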

Sequence	polyreactivity (PSR sort gate)
QLQLVESGGGLVQAGGSLRLSCAASGSIFRFNAMGWYRQAPGKERELVAAISGDSGSTYYADSVKGRFTISRDTAKNTVYFQMNCLKPEDTAVYYCNARHGKIIFYLERYDYWGHGTQVTVSS	low polyreactivity
QLQLVESGGGLVQAGGSLRLSCAASGSIFSRNAMGWYRQAPAKERELVAGISTGGSTNYADSVKGRFTISRDNAKNTVYLLMNSLKTEVTAVYYCAAPLAYEGDYWGQGTQVTVSS	low polyreactivity
QLQLVESGGGLVQAGGSLRLSCAASGSIFYKYAMGWYRQAPGKERELVAAITWSGGRTYYADSVKGRFTISRDNAKNTVYLQMNSLIPEDTAVYYCAAVLRRYPGWVSDYNYWGQGTQVTVSS	high polyreactivity
QLQLVESGGGLVQAGGSLRLSCAASGSIIAAYAMGWYRQAPVKERELVAVITRSGGSTYYADSVKGRFTISRDNAKNTVYLQMNSLKPEDTAVYYCAAVGTRKMYYWGQGTQVTVSS	high polyreactivity
QLQLVESGGGLVQAGGSLRLSCAASGSTFAPYAMGWYRQAPGKERELVADISGGSTNYADSVKGRFTISRDNAKNTVYLQMNSLKPEDTAVYYCATEDHVETVRRLYGYWGLGTQVTVSS	low polyreactivity
QLQLVESGGGLVQAGGSLRLSCAASGSTFGFYAMGWYRQAPGKARELVAAISSSGSTYYADSVKGRFTISRDNAKITVYLQMNSLKPEDTAVYYCAAQPGYYDYDYWGQGTQVTVSS	low polyreactivity
QLQLVESGGGLVQAGGSLRLSCAASGSTFPTNAMGWYRQAPGKEMELVATITTGGSTYYADSVKGRFTISRDNAKNTVYLQMNCLKPEDTAVYYCNAEYVYLIFSVYLYDYDYWGQGTQVTVSS	low polyreactivity
QLQLVESGGGLVQAGGSLRLSCAASGSTFRFNTMGWYRQAPGKERGLVACIAAGTTTNYADSVKGRFTISRDNAKNTVYLQMNSLKPEDAAVYYCAALNAFNTGHWYWGQGTQVTVSS	low polyreactivity
QLQLVESGGGLVQAGGSLRLSCAASGSTFTFNAMGWYRQAPGKERELVATISRGGSTSYADSVKGRFTISRDNAKNTVYLQMNSLNPEDTAVYYCAAVLYPSIYGFAGGKTDYDYWGQGTQVTVSS	low polyreactivity
QLQLVESGGGLVQAGGSLRLSCAASGSTFWSNTMGWYRQAPGKERELVATITDSGGITYYADSVKGRFTISRDNAKNTVYLQMNSLKPEDTAVYYCNVRKTWYGYSVTGRYDYWGQGTQVTVSS	low polyreactivity
QLQLVESGGGLVQAGGSLRLSCAASGSTFYAYAMGWNRPAPGKERELVAAISRGGNTYYADSVQGRFTISRDNAKNTVYLQMNSRKPEDTAVYYCAARYARGRSPLQYGYWGQGTQVTVSS	high polyreactivity
QLQLVESGGGLVQAGGSLRLSCAASGVIFRAYAMGSSRQAPGQERELVAAISGRGGSTYYADSVKGRFTISRDNAKNTVYLQMNSLKPEDTAVYYCNVPLIHPGAPYEYWGQGTQVTVSS	high polyreactivity
QLQLVESGGGLVQAGGSLRLSCAASRRIFSPNAMGWYRQAPGKESELVAAIRWNGGRTYYADSVKGRFTISRDTAKNTVYLQMNSLKPEDTAVYYCAATYFGPDYVRYDDWGQGTQVTVSS	high polyreactivity
QLQLVESGGGLVQAGGSLRLSCAATGRIFRFYALGWYRQATGKERELVADISRRGGSTYFADSVKGRFTISRDNAKNTVYVQMTSLKPEDTAVYYCNARWYRTGSTYHEDYWGQGTQVTVSS	high polyreactivity
QLQLVESGGGLVQAGGSLRLSCSASGGTFYRNAMGWSRQAPGKESELVPSISRTGGSTYYADSVKGRFTISRDNAKNTVYLQMNILKPEDTAVYYCANKQPRYSYFDNDYWGQGTQVTVSS	high polyreactivity
QLQLVESGGGLVQAGGSLSLSCAASGRIFYVYAMGWYRQAPGKEREFVAAITRRSGSTYYADSVKGRFTISRDNAKNTVYFQMNSLKPEDTSVYYCNARLKYAIPQVPPYDYWGQGTQVTVSS	high polyreactivity

Sequence	polyreactivity (PSR sort gate)
QLQLVESGGGLVQAGGSRRLSCAASGSTFGRYAMGWYRQAPGKERELVAAISRRGTSTYYADSVKGRFTISRDNAKNTVYIQMNSLKPEDTAVYYSNAVTSSFYNRDSDYWGQGTQVTVSS	high polyreactivity
QLQLVESGGGLVQARGSLRLSCASSGSPFEGYAMGRSRQAPGKERELVARITIGGSTNYADSVKGRFTISRDNAKNSVYLQMNSLKPDDTAVYYCAADYRWGYYFTFYYWGQGTQVTVSY	high polyreactivity
QLQLVESGGWLVQAGGSLRLSCAASGGTIVTYAMGWYRQAPGKERELVAAISRRGGSTFSADSVKGRFTISRDNAKNTVYLQMNSLKPADTAVYYCAALSNHGYYIRMDYWGHGTQVTVSS	high polyreactivity
QLQLVESGRGLVQAGGSLRLSCAASGITFPGYAMGWYRQAPGKERELVAAIDWSGDGTYYADSVKGRFTISRENAKNTVYFQMNSLKPEDTAVFYCAKDNYPNHSTVLAVIYDNWGQGTQVTVSS	low polyreactivity
QLQLVESGRGLVQAGGSLRLSCAASGRTFVYYPMGSYRQAPGKERELVASISSVGTTKYADSVKGRFTISRDNAKNTVYLQMNCLKPEDTAVYYCAAVPLSRNIFDSWGQGTQVSVSS	low polyreactivity
QLQLVESGVGLVQAGGSLRLSCAPSGFTSTYYAMAWYSQAPGKERELVAAITSSGTRTYYADSVKGRFTISRENAKNTVYLQMNSLKPEDTAVYYCNAALRKGMYYWGQGTQVTVSS	high polyreactivity
QLRLVESGGGLVQAGGSLRLSCAAYGFIFRNNAMGWYRQAPGKERELVAVISFSGGSTYYADSVKGRFTISRDNAKHTVYLQMNSLKPEDTAVYYCAADDYQVQYDYWGQGTQVTVSS	low polyreactivity
QQQLVESGGGVVQAGGSLRLSCAASGSTFSGYAMGWYIPAPGKERELVAAIRKSGGSKYYADSVKGRFTISRDNAKNTVYLQMNSLKPEDTAVYYCNARRDLQYSQYKRYGYWGQGTQVNVSS	low polyreactivity
QVEHVDSGRGLVQAGGSLRLSCAASGSIIRSYAMGWYRQAPGKERELVAAISWRGGRTYYADSLKGRFTISRDNAKNTVYLQMNSLKPEDTAVYFCAARKRAQQGTRDHDYWGQGTQLTVSS	high polyreactivity
QVELVESAAGLVQAGASLRLSCAASGTTIKSYVMGWYRQPPGKETELVAAISSGDSTYYADSVKGRFTISRDNAKNTVYLQMNSLNPEDTAVYYCAADPCYSVEPWEDDYWGQGSQVTVSS	low polyreactivity
QVELVESGGGLVQAGGSLRLSCAASGRTFTPYAMGWYRQAPGKEREFVAAISIVGRTKYADSVKGRFTISRDNAKNTVYLQMNSLKPEDTAVYYCNAQDSRDRKFYWGYTRGHWGQGTQVTVSS	low polyreactivity
QVELVESGGGLVQAGGSLRLSCAASGSIFTVYAMGWYRQAPGKERELVAAISSSGGRTYYADSVKGRFTISRDNAKNTVYLQMNSLKPEDTAVYYCNTGPGQSFRYNYWGQGTQVTVSS	high polyreactivity
QVELVESGGGLVQAGGSLRLSCAASGSTFSINAMGWYRQAPGKERELVADITWRGVRTYYADSVKGRFTISRDNAKNTVYLQMNSLKPEDTAVYYCAADVVVDGHPGFDYWGQGTQVTVSS	high polyreactivity
QVELVESGGGLVQAGGSLRLSCAASGSTFVDNDMGWYRQAPGKERELVAAAITARGGSTYYADSVTGRFTISRDNAKNTDYIQMNSLKPEDTAVYYCAAGRPGELDYWGQGTQVTVSS	low polyreactivity
QVELVESGGGLVQAGVSLRLSCAASGIISRGYAMGWYRQAPGKERELVAAISRSGGTTYYADSVKGRFTISRDNAKTTVYLQMNSLKPEDTAVYYCAARSKYFGYWGQGTQVTVSS	high polyreactivity
QVELVESGGGLVQPGGSLRLSCAASGRTFYLNAMGWYRQAPGKEREFVARITWSGGSTYYADSVKGRFTISRDNAKNTVYLQMNSLKPEDTAVYYCAARVRLYRGFTKYDYWGQGTQVTVSS	high polyreactivity
